According to PMC314469, “Protein Interaction Networks by Proteome Peptide Scanning” (PLoS Biology, 2004):

T1: amphyphisin SH3 (AMPH_HUMAN), P49418
T1 chain: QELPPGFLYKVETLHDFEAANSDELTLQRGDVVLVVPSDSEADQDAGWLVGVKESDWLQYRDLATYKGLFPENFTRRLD


Columns and labels:
[1] = biological target: T1, amphyphisin SH3 (AMPH_HUMAN), P49418; assay: SPOT array
[2] = biological target: endophilin SH3 (SH3G2_HUMAN), Q99962; assay: SPOT array

| normalised SPOT signal, Boehringer light units (BLU); mean over the file's lines of this peptide [1] | normalised SPOT signal, Boehringer light units (BLU); mean over the file's lines of this peptide [2] | Binder |
| --- | --- | --- |
| 80.6 | 8610 | FLGGPARPPSPSPS [P08588 264-278] |
| 64.1 | 93 | FNDSPYKPPVTRSN [Q9H7L2 189-203] |
| 5790 | 889 | FRRVLLRPSRRVRS [P32745 324-337] |
| 22.4 | 61.9 | FTKTIKRPFGVKYN [P17752 389-402] |
| 336 | 204 | FNRYLSRPRRVEMA [O43365 212-225] |
| 3020 | 5760 | AIAPPPRPPKPSQA [Q9UQC2 347-361] |
| 58.5 | 35.3 | FSESLKRPWEDDPP [Q9Y384 121-134] |
| 2710 | 76.1 | FTGPPQKPPRLGAQ [Q14289 851-865] |
| 115 | 3350 | FNFDIRRPSLEHRQ [O43558 420-433] |
| 172 | 5220 | FSHLLRRPPPEAPR [O76081 86-99] |
| 340 | 1540 | FRRLPTRPRKGGPE [Q9NXF8 292-305] |
| 32.9 | 32.9 | FQEFLKRPDHKQDF [Q9C093 551-564] |
| 34.2 | 116 | FLGHIKRPWGISVG [Q12908 58-71] |
| 255 | 156 | FNKYLSRPRRVEIA [O43364 164-177] |
| 37.5 | 51.3 | FSSFLKRPKSQVSE [P11171 83-96] |
| 242 | 385 | FNKYISRPRRVELA [P52945 167-180] |

| normalised SPOT signal, Boehringer light units (BLU); mean over the file's lines of this peptide [1] | normalised SPOT signal, Boehringer light units (BLU); mean over the file's lines of this peptide [2] | Binder |
| --- | --- | --- |
| 562 | 425 | FPTVPTRPEKGYIW [Q99995 108-121] |
| 88 | 59.2 | FTDLPKKPPPPEVT [Q96QH2 75-89] |
| 879 | 292 | FSHILKRPDRVLLI [P33076 484-497] |
| 30.1 | 35.9 | FSSVPSKPPMSLEP [Q96E32 219-233] |
| 26.2 | 100 | FNFDFRRPGPEPPR [O43559 400-413] |
| 724 | 2010 | FLNRLVRPRRSAPK [O43508 84-97] |
| 31.3 | 71.1 | AKDLLRRPFDLMLV [Q9BZW5 208-221] |
| 1090 | 2080 | FSFSLPRPGRRGSR [O00538 575-588] |
| 1130 | 1160 | FMSSPRRPRSRGRQ [Q9HAP2 6-19] |
| 14.2 | 382 | FLTRLRRPIGKMTI [P28288 243-256] |
| 92 | 100 | FNQALGRPEKIHNK [Q9UHP3 379-392] |
| 42.3 | 2020 | FLLLPPRPPPARPE [Q96IC8 98-112] |
| 402 | 1390 | AILTLPRPVRASLP [Q9NQ75 154-167] |
| 193 | 111 | FNKYLSRPKRFEVA [P50219 263-276] |
| 74.9 | 109 | FRGSFRRPDNLSLA [Q9Y4B7 288-301] |
